Source: paper PMC5607582

Target: trimeric H5-S·Tag (ectodomain of H5 hemagglutinin of A/duck/Viet Nam/TG24-01/2005 (H5N1) fused to GCN4-pII and S·Tag) (influenza A virus A/duck/Viet Nam/TG24-01/2005 (H5N1) | not stated | bovine)

Work on “wild-type S·Protein (bovine pancreatic ribonuclease A residues 21-124) (from UniProt P61823 47-150) (domain or fragment)” yielded a hemagglutination titer (HAU) of plant extract after co-expression in plants of 4 HAU.
With “S·Protein-GCN4 (S·Protein fused to the dimerization domain GCN4 wild-type) (from UniProt P61823 47-150)” the hemagglutination titer (HAU) of plant extract after co-expression in plants was 2 HAU.
“S·Protein-pII (S·Protein fused to the trimerization domain GCN4-pII) (from UniProt P61823 47-150)” gave a hemagglutination titer (HAU) of plant extract after co-expression in plants of 0 HAU.
“S·Protein-TP (S·Protein of bovine ribonuclease A fused to the tailpiece of mouse IgM) (from UniProt P61823 47-150)” gave a hemagglutination titer (HAU) of plant extract after co-expression in plants of 256 HAU.
